Experimental findings from patent US20240132578A1 are described below.

Common to all, as to test: cell-based or functional assay
Assay [1] concerns the target HIV-1 APV6 envelope glycoprotein (Env), clade B pseudovirus (HIV-1).
Assay [2] has as its target HIV-1 MGRM-C-026 envelope glycoprotein (Env), clade C pseudovirus (HIV-1).
The target of assay [3] is HIV-1 94UG103 envelope glycoprotein (Env), clade A pseudovirus (HIV-1).
Assay [4] has as its target HIV-1 NL43 envelope glycoprotein (Env), clade B pseudovirus (HIV-1).
Assay [5] has as its target HIV-1 MGRM-A-010 envelope glycoprotein (Env), clade A pseudovirus (HIV-1).
In assay [6] the target is HIV-1 93IN905 Env (HIV-1 isolate 93IN905 (clade C)).
Assay [7] deals with HIV-1 Env of pseudovirus PVO.4 (HIV-1).
Assay [8] concerns the target HIV-1 Env of pseudovirus DU422 (HIV-1).
Assay [9] addresses HIV-1 Env of pseudovirus Du172 (HIV-1).
Assay [10] concerns the target Envelope protein of control pseudovirus MuLV (MuLV).
Assay [11] addresses HIV-1 Env of isolate MGRM-Chronic-B-003 (subtype B), on pseudovirus (HIV-1).
For assay [12], the target named is HIV-1 Env of isolate MGRM-Chronic-B-020 (subtype B), on pseudovirus (HIV-1).
Assay [13] deals with HIV-1 Env of isolate MGRM-Chronic-B-001 (subtype B), on pseudovirus (HIV-1).
Assay [14] deals with HIV-1 envelope glycoprotein (Env) of isolate MG RM-A-006 (HIV-1).
Assay [15] addresses HIV-1 envelope glycoprotein (Env) of isolate MG RM-A-002 (HIV-1).
Assay [16] concerns the target HIV-1 Env of isolate MG RM-D-001 (subtype D) (HIV-1).
The target of assay [17] is HIV-1 APV17 envelope glycoprotein (Env) on virus (HIV-1, clade B, isolate APV17).
The target in assay [18] is HIV-1 MGRM-D-001 envelope glycoprotein (Env) on virus (HIV-1, clade D, isolate MGRM-D-001).
The target of assay [19] is HIV-1 MGRM-C-026 envelope glycoprotein (Env) on virus (HIV-1, clade C, isolate MGRM-C-026).
Assay [20] has as its target HIV-1 CMU02 envelope glycoprotein (Env) on virus (HIV-1, clade AE, isolate CMU02).
The target in assay [21] is HIV-1 92RW020 envelope glycoprotein (Env) on pseudovirus (HIV-1).
Assay [22] addresses HIV-1 94UG103 envelope glycoprotein (Env) (HIV-1).
Another assay concerns the target aMLV envelope protein.
In assay [23] the target is HIV-1 MGRM-C-027 envelope glycoprotein (Env) (HIV-1).
The target in assay [24] is HIV-1 envelope glycoprotein (Env) of isolate MGRM-C-028 (HIV-1).
Assay [25] deals with HIV-1 envelope glycoprotein (Env) of isolate JRFL (HIV-1).
Assay [26] deals with HIV-1 APV6 Env (pseudovirus) (HIV-1).
For assay [27], the target named is HIV-1 MGRM-C-028 Env (pseudovirus) (HIV-1).
Assay [28] addresses HIV-1 92UG005 Env (pseudovirus) (HIV-1).
Assay [29] has as its target HIV-1 MGRM-C-027 Env (pseudovirus) (HIV-1).
Assay [30] has as its target HIV-1 Env of isolate 94UG103 (clade A) (HIV-1).

Sequence of 5329_C19 (PGT-136) (antibody) (VH): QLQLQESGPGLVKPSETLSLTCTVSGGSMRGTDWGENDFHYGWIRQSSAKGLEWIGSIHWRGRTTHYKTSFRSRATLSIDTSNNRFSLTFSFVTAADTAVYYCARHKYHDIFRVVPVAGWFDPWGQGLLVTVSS
Sequence of 5329_C19 (PGT-136) (antibody) (VL): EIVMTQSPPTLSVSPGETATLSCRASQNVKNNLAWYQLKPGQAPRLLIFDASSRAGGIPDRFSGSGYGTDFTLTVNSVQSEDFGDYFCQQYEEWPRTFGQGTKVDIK
Sequence of 1443_C16 (PG16) (TCN-116) (antibody) (VH): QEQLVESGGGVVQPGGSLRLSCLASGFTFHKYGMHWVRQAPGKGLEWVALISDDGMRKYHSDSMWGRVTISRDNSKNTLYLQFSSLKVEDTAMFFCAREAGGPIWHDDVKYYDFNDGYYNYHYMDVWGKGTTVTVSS
Sequence of 1443_C16 (PG16) (TCN-116) (antibody) (VL): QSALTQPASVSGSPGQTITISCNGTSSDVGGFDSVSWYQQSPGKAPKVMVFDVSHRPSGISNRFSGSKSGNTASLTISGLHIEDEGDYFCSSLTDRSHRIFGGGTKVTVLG

For the substance 4858_P08 (PGT-123) (antibody), the IC50, pseudovirus neutralization in assay [1] is 0.0328 µg/mL; in assay [2], 0.0031 µg/mL; in assay [3] it was 0.846 µg/mL; in [4], over 10 µg/mL; in [5], 0.492 µg/mL. Moreover, the IC80 (pseudovirus neutralization) in [1] was 0.145 µg/mL; in assay [2] it was 0.0094 µg/mL; in [3], 3.29 µg/mL; in assay [4], over 10 µg/mL; in [5], 2.79 µg/mL. For the same substance, the IC90 (pseudovirus neutralization) was 0.339 µg/mL in assay [1]; 0.0183 µg/mL in assay [2]; 8.56 µg/mL in assay [3]; over 10 µg/mL in assay [4]; 6.44 µg/mL in [5]. The IC95 (pseudovirus neutralization) is 0.726 µg/mL in assay [1]; 0.0338 µg/mL in assay [2]; over 10 µg/mL in assay [3]; over 10 µg/mL in assay [4]; over 10 µg/mL in [5].
In assay [6], 4838_L06 (PGT-121) (antibody) gave a Neutralization IC80 of 0.0302 µg/mL and a Neutralization IC90 of 0.0645 µg/mL.
For the substance 1443_C16 (PG16) (TCN-116) (antibody), the IC50, pseudovirus neutralization (TZM-bl assay) in [7] was 12.3 µg/mL; in [8], 0.59 µg/mL; in [9], under 0.01 µg/mL. In assay [10], this substance showed an IC50, pseudovirus neutralization (TZM-bl assay), control virus of over 25 µg/mL.
By IC50 is commonly meant the midpoint of a concentration-inhibition curve. Take PGV04 (antibody): the IC50, single-round pseudovirus neutralization in [11] was 0.258 µg/mL; in assay [12], 1.26 µg/mL; in assay [13] it was 0.048 µg/mL. Moreover, the IC50 was determined as 0.244 µg/mL in [14] and 0.093 µg/mL in assay [15]. The IC50 (µg/mL), pseudovirus neutralization in assay [16] is over 50 µg/mL.
For 4877_D15 (PGT-122) (antibody), the Neutralization IC80 is 1.76 µg/mL in [17], 4.48 µg/mL in [18], 0.037 µg/mL in assay [19] and over 10 µg/mL in assay [20]. The Neutralization IC90 is 3.58 µg/mL in [17], over 10 µg/mL in assay [18], 0.0849 µg/mL in assay [19] and over 10 µg/mL in [20]. The Neutralization IC95 was 6.92 µg/mL in [17], over 10 µg/mL in [18], 0.181 µg/mL in [19] and over 10 µg/mL in [20]. Moreover, the neutralization IC50 in assay [17] was 0.522 µg/mL; in [18], 0.867 µg/mL; in assay [19], 0.0089 µg/mL; in [20] it was over 10 µg/mL.
In assay [21], 5343_B08 (PGT-135) (antibody) returned a Neutralization IC80 of 3.46 µg/mL, a Neutralization IC90 of over 10 µg/mL, a Neutralization IC95 of over 10 µg/mL and a neutralization IC50 of 0.157 µg/mL.
In assay [22], 5329_C19 (PGT-136) (antibody) registered a Neutralization IC80 of over 10 µg/mL, a Neutralization IC90 of over 10 µg/mL, a Neutralization IC95 of over 10 µg/mL and a neutralization IC50 of over 10 µg/mL. In the assay with aMLV envelope protein, this substance displayed a Neutralization IC80 of over 10 µg/mL, a Neutralization IC90 of over 10 µg/mL, a Neutralization IC95 of over 10 µg/mL and a neutralization IC50 of over 10 µg/mL. In [23], this substance had a Neutralization IC80 of over 10 µg/mL, a Neutralization IC90 of over 10 µg/mL, a Neutralization IC95 of over 10 µg/mL and a neutralization IC50 of over 10 µg/mL.
Take 5141_B17 (PGT-126) (antibody): in assay [24], the Neutralization IC80 stood at 2.62 µg/mL, the Neutralization IC90 is over 10 µg/mL, the Neutralization IC95 was over 10 µg/mL and the neutralization IC50 came to 0.283 µg/mL. In [25], this substance came in with a Neutralization IC80 of 0.0454 µg/mL, a Neutralization IC90 of 0.09 µg/mL, a Neutralization IC95 of 0.169 µg/mL and a neutralization IC50 of 0.014 µg/mL.
For 5123_A06 (PGT-125) (antibody), in [26], the Neutralization by PGT-125, IC50 is 0.0359 µg/mL; the Neutralization by PGT-125, IC80 is 0.133 µg/mL; the Neutralization by PGT-125, IC90 stood at 0.288 µg/mL; the Neutralization by PGT-125, IC95 worked out at 0.597 µg/mL. Further, in assay [27], the Neutralization by PGT-125, IC50 was 5.78 µg/mL; the Neutralization by PGT-125, IC80 was over 10 µg/mL; the Neutralization by PGT-125, IC90 was over 10 µg/mL; the Neutralization by PGT-125, IC95 was over 10 µg/mL. Moreover, in assay [28], the Neutralization by PGT-125, IC50 was over 10 µg/mL; the Neutralization by PGT-125, IC80 is over 10 µg/mL; the Neutralization by PGT-125, IC90 was over 10 µg/mL; the Neutralization by PGT-125, IC95 was over 10 µg/mL. Further, in [29], the Neutralization by PGT-125, IC50 is over 10 µg/mL; the Neutralization by PGT-125, IC80 was over 10 µg/mL; the Neutralization by PGT-125, IC90 was over 10 µg/mL; the Neutralization by PGT-125, IC95 is over 10 µg/mL.
As for 1496_C09 (PG9) (TCN-109) (antibody), in [30], the Neutralization IC80 worked out at 1.95 µg/mL, the Neutralization IC90 was found to be 5.54 µg/mL and the neutralization IC50 turned out to be 0.31 µg/mL.
